In US20240309340:
Numbering of substitutions follows the chain as printed. Like-named read-outs stand apart in the source and are kept apart here.

How the values were obtained:
[1] = tested on: H004 Phi29 DNA polymerase Y224K,E239G,V250I,L253A,E375Y,A437G,A484E,E508R,D510K,K512Y,E515Q,D570M (Bacillus phage phi29?); settings: conversion of modified dNTPs; 100 pM primer/template, 300 pM protein, 5 mM Mg(OAc)2, 10 mM DTT, 30 min; Table 5 gives 19.9%
[2] = tested on: H022 Phi29 DNA polymerase Y224K,E239G,V250I,L253A,E375Y,K379S,A437G,A484E,E508R,D510K,K512Y,E515Q,D570M (Bacillus phage phi29?); settings: conversion of modified dNTPs; 5 mM Mg(OAc)2
[3] = tested on: H020 Phi29 DNA polymerase Y224K,E239G,V250I,L253A,E375S,A437G,A484E,E508R,D510K,K512Y,E515Q,D570M (Bacillus phage phi29?); settings: conversion of modified dNTPs; 5 mM Mg(OAc)2
[4] = tested on: H034 Phi29 DNA polymerase K143D,Y224K,E239G,V250I,L253A,E375Y,A437G,A484E,E508R,D510K,K512Y,E515Q,D570M (Bacillus phage phi29?); settings: conversion of modified dNTPs; 5 mM Mg(OAc)2
[5] = tested on: H019 Phi29 DNA polymerase Y224K,E239G,V250I,L253A,E375A,A437G,A484E,E508R,D510K,K512Y,E515Q,D570M (Bacillus phage phi29?); settings: conversion of modified dNTPs; 5 mM Mg(OAc)2
[6] = tested on: H022 Phi29 DNA polymerase Y224K,E239G,V250I,L253A,E375Y,K379S,A437G,A484E,E508R,D510K,K512Y,E515Q,D570M (Bacillus phage phi29?); experiment: cleavage_in_vitro; settings: RCA ++++
[7] = tested on: H020 Phi29 DNA polymerase Y224K,E239G,V250I,L253A,E375S,A437G,A484E,E508R,D510K,K512Y,E515Q,D570M (Bacillus phage phi29?); experiment: cleavage_in_vitro; settings: RCA ++++
[8] = tested on: H004 Phi29 DNA polymerase Y224K,E239G,V250I,L253A,E375Y,A437G,A484E,E508R,D510K,K512Y,E515Q,D570M (Bacillus phage phi29?); experiment: cleavage_in_vitro; settings: primer hydrolysed in 2 min
[9] = tested on: H019 Phi29 DNA polymerase Y224K,E239G,V250I,L253A,E375A,A437G,A484E,E508R,D510K,K512Y,E515Q,D570M (Bacillus phage phi29?); experiment: cleavage_in_vitro; settings: RCA ++++
[10] = tested on: G059 Phi29 DNA polymerase E14I E14I (Bacillus phage phi29?); experiment: cleavage_in_vitro; settings: RCA +++
[11] = tested on: G087 Phi29 DNA polymerase Y148L Y148L (Bacillus phage phi29?); experiment: cleavage_in_vitro; settings: RCA +++
[12] = tested on: G075 Phi29 DNA polymerase K143D K143D (Bacillus phage phi29?); experiment: cleavage_in_vitro; settings: RCA +++
[13] = tested on: G077 Phi29 DNA polymerase D145A D145A (Bacillus phage phi29?); experiment: cleavage_in_vitro; settings: RCA +++
[14] = target: T1, tsH042' Phi29 DNA polymerase (K143S, sso7d fusion) (Bacillus phage phi29?) (UniProt P03680); settings: template aligned length, single molecule sequencing
T1 sequence: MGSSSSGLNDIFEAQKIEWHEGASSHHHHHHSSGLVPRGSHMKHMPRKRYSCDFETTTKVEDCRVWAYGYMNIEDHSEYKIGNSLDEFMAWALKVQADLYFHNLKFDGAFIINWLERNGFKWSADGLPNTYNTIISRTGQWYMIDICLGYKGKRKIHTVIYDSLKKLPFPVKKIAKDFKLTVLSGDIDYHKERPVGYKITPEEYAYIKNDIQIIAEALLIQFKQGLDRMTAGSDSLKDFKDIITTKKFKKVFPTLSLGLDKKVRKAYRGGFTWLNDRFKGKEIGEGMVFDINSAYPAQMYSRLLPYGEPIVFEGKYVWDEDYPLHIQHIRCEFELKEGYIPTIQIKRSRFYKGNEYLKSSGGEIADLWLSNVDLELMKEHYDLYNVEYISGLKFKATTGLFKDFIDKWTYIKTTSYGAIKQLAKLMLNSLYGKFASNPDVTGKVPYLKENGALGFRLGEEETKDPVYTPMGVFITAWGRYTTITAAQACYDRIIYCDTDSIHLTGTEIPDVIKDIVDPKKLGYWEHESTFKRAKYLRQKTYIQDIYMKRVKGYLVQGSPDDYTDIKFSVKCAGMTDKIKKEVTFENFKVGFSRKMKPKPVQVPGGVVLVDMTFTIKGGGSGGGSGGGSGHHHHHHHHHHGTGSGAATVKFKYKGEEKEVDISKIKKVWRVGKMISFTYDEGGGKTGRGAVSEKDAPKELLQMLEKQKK

[15] = target: T2, tsH034' Phi29 DNA polymerase (K143D, sso7d fusion) (Bacillus phage phi29?) (UniProt P03680); settings: template aligned length, single molecule sequencing
T2 sequence: T1 sequence with S184D

[16] = target: T3, tsH039' Phi29 DNA polymerase (Y148L, sso7d fusion) (Bacillus phage phi29?) (UniProt P03680); settings: template aligned length, single molecule sequencing
T3 sequence: T1 sequence with S184K, Y189L

## primer/template (modified dNTP conversion)
[1]
  activity: 48.4%
[2]
  activity: 32.5%
[3]
  activity: 46.2%
[4]
  activity: 5.4%
[5]
  activity: 22.2%

## fluorescent-labelled primer (exonuclease substrate)
[6]
  activity: 62.2%
[7]
  activity: 56.5%
[8]
  activity: 38%
[9]
  activity: 39.1%
[10]
  activity: 52.6%
[11]
  activity: 34.5%
[12]
  activity: 37.5%
[13]
  activity: 68.6%

## circular DNA template with primer (single molecule sequencing)
[14]
  activity: 342 bases
[15]
  activity: 282 bases
[16]
  activity: 436 bases
